For experiment [1], the target named is T1, human amylin 3(a) receptor (human calcitonin receptor co-expressed with RAMP-3) (human, UniProt P30988 25-474; O60896 24-148, limits assumed).
T1 sequence (looked up) 1: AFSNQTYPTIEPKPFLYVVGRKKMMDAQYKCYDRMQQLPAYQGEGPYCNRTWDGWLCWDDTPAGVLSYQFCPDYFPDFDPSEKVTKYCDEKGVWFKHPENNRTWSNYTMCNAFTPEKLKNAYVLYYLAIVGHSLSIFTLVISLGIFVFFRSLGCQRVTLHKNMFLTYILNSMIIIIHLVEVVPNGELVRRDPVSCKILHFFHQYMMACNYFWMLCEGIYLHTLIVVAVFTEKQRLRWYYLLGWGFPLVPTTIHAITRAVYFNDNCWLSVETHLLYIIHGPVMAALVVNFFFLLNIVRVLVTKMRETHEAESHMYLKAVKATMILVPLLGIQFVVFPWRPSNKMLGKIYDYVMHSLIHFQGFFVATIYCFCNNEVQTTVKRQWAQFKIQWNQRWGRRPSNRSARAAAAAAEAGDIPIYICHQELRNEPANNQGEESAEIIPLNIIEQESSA
T1 sequence (looked up) 2: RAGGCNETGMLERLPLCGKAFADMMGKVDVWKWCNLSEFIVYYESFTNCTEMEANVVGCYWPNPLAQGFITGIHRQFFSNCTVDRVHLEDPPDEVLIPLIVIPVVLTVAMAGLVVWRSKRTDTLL
As to the kind of experiment: cell-based or functional assay.

The target in experiment [2] is T2, human calcitonin receptor (human, UniProt P30988 25-474).
T2 sequence (looked up): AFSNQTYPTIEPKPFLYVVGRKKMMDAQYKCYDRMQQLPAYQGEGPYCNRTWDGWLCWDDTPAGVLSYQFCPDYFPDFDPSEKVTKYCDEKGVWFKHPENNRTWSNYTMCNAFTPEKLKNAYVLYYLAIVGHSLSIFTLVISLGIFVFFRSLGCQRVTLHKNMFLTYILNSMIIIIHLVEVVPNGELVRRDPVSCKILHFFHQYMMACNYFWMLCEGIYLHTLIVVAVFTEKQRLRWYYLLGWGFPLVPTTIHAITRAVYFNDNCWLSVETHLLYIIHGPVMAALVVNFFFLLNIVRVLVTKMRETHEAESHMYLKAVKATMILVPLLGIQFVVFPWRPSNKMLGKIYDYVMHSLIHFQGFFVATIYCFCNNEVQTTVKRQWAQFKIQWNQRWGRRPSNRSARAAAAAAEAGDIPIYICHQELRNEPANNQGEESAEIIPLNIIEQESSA
As to the kind of experiment: cell-based or functional assay.

Numbered stars: 1 amine (or outer) side, 2 acyl side, 3 side chain; on linkers, the order of the positions; unused ones are H or OH. * marks the point of attachment. C20 diacid = O=C(O)CCCCCCCCCCCCCCCCCCC(=O)*; C18 diacid = O=C(O)CCCCCCCCCCCCCCCCC(=O)*; γGlu = O=C(O)[C@H](CCC(=O)[*:2])N[*:1]

We go through seven molecules from patent US20160272683A1 (Novo Nordisk, published 2016).

B1: [N-terminal(C18 diacid-gGlu), des1, 6T, 9V, 30T, 31G, 32T]mimylin (peptide)
peptide: {C18 diacid-γGlu}-ASELTTAVLGRLSAELHELATLPRTETGTGTP-NH2
Turning to B1, the “hAmylin-R funct. EC50 (pM)” value in experiment [1] is 65 pM. Moreover, in experiment [2], the “hCTR funct. EC50 (pM)” value was 32 pM.

B2: [N-terminal(C20 diacid-gGlu), des1, 21S, 23Y, 30S, 31G, 33Y]mimylin (peptide)
peptide: {C20 diacid-γGlu}-ASELSTAALGRLSAELHELSTYPRTETGSGSY-NH2
SMILES: CC(C)C[C@H](NC(=O)[C@H](C)NC(=O)[C@H](C)NC(=O)[C@@H](NC(=O)[C@H](CO)NC(=O)[C@H](CC(C)C)NC(=O)[C@H](CCC(=O)O)NC(=O)[C@H](CO)NC(=O)[C@H](C)NC(=O)CC[C@H](NC(=O)CCCCCCCCCCCCCCCCCCC(=O)O)C(=O)O)[C@@H](C)O)C(=O)NCC(=O)N[C@@H](CCCNC(=N)N)C(=O)N[C@@H](CC(C)C)C(=O)N[C@@H](CO)C(=O)N[C@@H](C)C(=O)N[C@@H](CCC(=O)O)C(=O)N[C@@H](CC(C)C)C(=O)N[C@@H](Cc1c[nH]cn1)C(=O)N[C@@H](CCC(=O)O)C(=O)N[C@@H](CC(C)C)C(=O)N[C@@H](CO)C(=O)N[C@H](C(=O)N[C@@H](Cc1ccc(O)cc1)C(=O)N1CCC[C@H]1C(=O)N[C@@H](CCCNC(=N)N)C(=O)N[C@H](C(=O)N[C@@H](CCC(=O)O)C(=O)N[C@H](C(=O)NCC(=O)N[C@@H](CO)C(=O)NCC(=O)N[C@@H](CO)C(=O)N[C@@H](Cc1ccc(O)cc1)C(N)=O)[C@@H](C)O)[C@@H](C)O)[C@@H](C)O
For the molecule B2, the “hAmylin-R funct. EC50 (pM)” value in experiment [1] was 50 pM. Also, the “hCTR funct. EC50 (pM)” value in experiment [2] came to 34 pM.

B3: [N-terminal(C18 diacid-gGlu), des1, 6T, 9V, 30S, 31G, 32T]mimylin (peptide)
peptide: {C18 diacid-γGlu}-ASELTTAVLGRLSAELHELATLPRTETGSGTP-NH2
Regarding B3, the “hAmylin-R funct. EC50 (pM)” value in experiment [1] amounted to 42 pM. For the same molecule, in experiment [2], the “hCTR funct. EC50 (pM)” value is 30 pM.

B4: [N-terminal(C20 diacid-gGlu), des1, 12H, 25H, 30T, 31G, 32T]mimylin (peptide)
peptide: {C20 diacid-γGlu}-ASELSTAALGHLSAELHELATLPHTETGTGTP-NH2
SMILES: CC(C)C[C@H](NC(=O)[C@H](C)NC(=O)[C@H](C)NC(=O)[C@@H](NC(=O)[C@H](CO)NC(=O)[C@H](CC(C)C)NC(=O)[C@H](CCC(=O)O)NC(=O)[C@H](CO)NC(=O)[C@H](C)NC(=O)CC[C@H](NC(=O)CCCCCCCCCCCCCCCCCCC(=O)O)C(=O)O)[C@@H](C)O)C(=O)NCC(=O)N[C@@H](Cc1c[nH]cn1)C(=O)N[C@@H](CC(C)C)C(=O)N[C@@H](CO)C(=O)N[C@@H](C)C(=O)N[C@@H](CCC(=O)O)C(=O)N[C@@H](CC(C)C)C(=O)N[C@@H](Cc1c[nH]cn1)C(=O)N[C@@H](CCC(=O)O)C(=O)N[C@@H](CC(C)C)C(=O)N[C@@H](C)C(=O)N[C@H](C(=O)N[C@@H](CC(C)C)C(=O)N1CCC[C@H]1C(=O)N[C@@H](Cc1c[nH]cn1)C(=O)N[C@H](C(=O)N[C@@H](CCC(=O)O)C(=O)N[C@H](C(=O)NCC(=O)N[C@H](C(=O)NCC(=O)N[C@H](C(=O)N1CCC[C@H]1C(N)=O)[C@@H](C)O)[C@@H](C)O)[C@@H](C)O)[C@@H](C)O)[C@@H](C)O
For B4, the “hAmylin-R funct. EC50 (pM)” value in experiment [1] came out at 64 pM. Moreover, in experiment [2], the “hCTR funct. EC50 (pM)” value stood at 24 pM.

B5: [N-terminal(C18 diacid), 9V]mimylin (peptide)
peptide: {C18 diacid}-EASELSTAVLGRLSAELHELATLPRTETGPESP-NH2
SMILES: CC(C)C[C@H](NC(=O)[C@H](CCC(=O)O)NC(=O)[C@H](Cc1c[nH]cn1)NC(=O)[C@H](CC(C)C)NC(=O)[C@H](CCC(=O)O)NC(=O)[C@H](C)NC(=O)[C@H](CO)NC(=O)[C@H](CC(C)C)NC(=O)[C@H](CCCNC(=N)N)NC(=O)CNC(=O)[C@H](CC(C)C)NC(=O)[C@@H](NC(=O)[C@H](C)NC(=O)[C@@H](NC(=O)[C@H](CO)NC(=O)[C@H](CC(C)C)NC(=O)[C@H](CCC(=O)O)NC(=O)[C@H](CO)NC(=O)[C@H](C)NC(=O)[C@H](CCC(=O)O)NC(=O)CCCCCCCCCCCCCCCCC(=O)O)[C@@H](C)O)C(C)C)C(=O)N[C@@H](C)C(=O)N[C@H](C(=O)N[C@@H](CC(C)C)C(=O)N1CCC[C@H]1C(=O)N[C@@H](CCCNC(=N)N)C(=O)N[C@H](C(=O)N[C@@H](CCC(=O)O)C(=O)N[C@H](C(=O)NCC(=O)N1CCC[C@H]1C(=O)N[C@@H](CCC(=O)O)C(=O)N[C@@H](CO)C(=O)N1CCC[C@H]1C(N)=O)[C@@H](C)O)[C@@H](C)O)[C@@H](C)O
B5: in experiment [1], the “hAmylin-R funct. EC50 (pM)” value was determined as 12 pM. For the same molecule, the “hCTR funct. EC50 (pM)” value in experiment [2] came out at 9 pM.

B6: [N-terminal(C20 diacid-gGlu), des1, 4G, 9V, 23Y, 30S, 31G, 32T]mimylin (peptide)
peptide: {C20 diacid-γGlu}-ASGLSTAVLGRLSAELHELATYPRTETGSGTP-NH2
SMILES: CC(C)C[C@H](NC(=O)CNC(=O)[C@H](CO)NC(=O)[C@H](C)NC(=O)CC[C@H](NC(=O)CCCCCCCCCCCCCCCCCCC(=O)O)C(=O)O)C(=O)N[C@@H](CO)C(=O)N[C@H](C(=O)N[C@@H](C)C(=O)N[C@H](C(=O)N[C@@H](CC(C)C)C(=O)NCC(=O)N[C@@H](CCCNC(=N)N)C(=O)N[C@@H](CC(C)C)C(=O)N[C@@H](CO)C(=O)N[C@@H](C)C(=O)N[C@@H](CCC(=O)O)C(=O)N[C@@H](CC(C)C)C(=O)N[C@@H](Cc1c[nH]cn1)C(=O)N[C@@H](CCC(=O)O)C(=O)N[C@@H](CC(C)C)C(=O)N[C@@H](C)C(=O)N[C@H](C(=O)N[C@@H](Cc1ccc(O)cc1)C(=O)N1CCC[C@H]1C(=O)N[C@@H](CCCNC(=N)N)C(=O)N[C@H](C(=O)N[C@@H](CCC(=O)O)C(=O)N[C@H](C(=O)NCC(=O)N[C@@H](CO)C(=O)NCC(=O)N[C@H](C(=O)N1CCC[C@H]1C(N)=O)[C@@H](C)O)[C@@H](C)O)[C@@H](C)O)[C@@H](C)O)C(C)C)[C@@H](C)O
With B6, the “hAmylin-R funct. EC50 (pM)” value in experiment [1] was determined as 47 pM. In addition, the “hCTR funct. EC50 (pM)” value in experiment [2] stood at 28 pM.

B7: [N-terminal(C18 diacid-gGlu), des1, 5V, 9V, 10V, 30S, 31G]mimylin (peptide)
peptide: {C18 diacid-γGlu}-ASEVSTAVVGRLSAELHELATLPRTETGSGSP-NH2
SMILES: CC(C)C[C@H](NC(=O)[C@H](CCC(=O)O)NC(=O)[C@H](Cc1c[nH]cn1)NC(=O)[C@H](CC(C)C)NC(=O)[C@H](CCC(=O)O)NC(=O)[C@H](C)NC(=O)[C@H](CO)NC(=O)[C@H](CC(C)C)NC(=O)[C@H](CCCNC(=N)N)NC(=O)CNC(=O)[C@@H](NC(=O)[C@@H](NC(=O)[C@H](C)NC(=O)[C@@H](NC(=O)[C@H](CO)NC(=O)[C@@H](NC(=O)[C@H](CCC(=O)O)NC(=O)[C@H](CO)NC(=O)[C@H](C)NC(=O)CC[C@H](NC(=O)CCCCCCCCCCCCCCCCC(=O)O)C(=O)O)C(C)C)[C@@H](C)O)C(C)C)C(C)C)C(=O)N[C@@H](C)C(=O)N[C@H](C(=O)N[C@@H](CC(C)C)C(=O)N1CCC[C@H]1C(=O)N[C@@H](CCCNC(=N)N)C(=O)N[C@H](C(=O)N[C@@H](CCC(=O)O)C(=O)N[C@H](C(=O)NCC(=O)N[C@@H](CO)C(=O)NCC(=O)N[C@@H](CO)C(=O)N1CCC[C@H]1C(N)=O)[C@@H](C)O)[C@@H](C)O)[C@@H](C)O
Regarding B7, the “hAmylin-R funct. EC50 (pM)” value in experiment [1] turned out to be 11 pM. Moreover, the “hCTR funct. EC50 (pM)” value in experiment [2] is 8 pM.
